Measurements reported in patent US20110014213A1 (JURIDICAL FDN THE CHEMO SERO THERAP RES INS, published 2011).

B1: HA9-107 scFv-Fc (Fc fusion, not shown: a dimerising Fc or GST)
scFv: EVQLVESGGGVVRPGGSLRLSCAASGFAFGDYGMSWVRQAPGKGLEWVSGINWNGGSTGYADSVKGRFTTSRDNAKNSLYLQMNSLRAEDTALYYCARDENYDILTNEYYYGMDVWGQGTTVTVSSGGGGSGGGGSGGGGSQSVVTQPPSVSAAPGQKVTISCSGSSSNIGNNYVSWYQQLPGTAPKLLIYDNNKRPSGIPDRFSASKSGTSATLGITGLQTGDEADYYCGTWDSSLTVWAFGGGTKLTVLG
B2: HA9-143 scFv-Fc (Fc fusion, not shown: a dimerising Fc or GST)
scFv: EVQLVESGGGVVRPGGSLRLSCAASGFAFGEYGMSWVRQAPGKGLEWVSGINWNGGSTGYADSVKGRFTTSRDNAKNSLYLQMNSLRAEDTALYYCARDENYDILTGHYYYGMDVWGQGTTVTVSSGGGGSGGGGSGGGGSQSVVTQPPSVSAAPGQKVTISCSGSSSNIGNNYVSWYQQLPGTAPKLLIYDNNKRPSGIPDRFSASKSGTSATLGITGLQTGDEADYYCGTWDSSLTVWAFGGGTKLTVLG
B3: HA9-212 scFv-Fc (Fc fusion, not shown: a dimerising Fc or GST)
scFv: EVQLVESGGGVVRPGGSLRLSCAASGFAFGEYGMSWVRQAPGKGLEWVSGINWNGGSTGYADSVQGRFTTSRDNAKNSLYLQMNSLRAEDTALYYCARDENYDILTGNYYYGMDVWGQGTTVTVSSGGGGSGGGGSGGGGSQSVVTQPPSVSAAPGQKVTISCSGSSSNIGNNYVSWYQQLPGTAPKLLIYDNNKRPSGIPDRFSASKSGTSATLGITGLQTGDEADYYCGTWDSSLTVWAFGGGTKLTVLG
B4: MA9-418 scFv-Fc (Fc fusion, not shown: a dimerising Fc or GST)
scFv: EVQLVESGGGVVRPGGSLRLSCAASGFAFGDYGMSWVRQAPGKGLEWVSGINWNGGSTGYADSVKGRFTTSRDNAKNSLYLQMNSLRAEDTALYYCARDENYDILTGAYYYGMDVWGQGTTVTVSSGGGGSGGGGSGGGGSQSVVTQPPSVSAAPGQKVTISCSGSSSNIGNNYVSWYQQLPGTAPKLLIYDNNKRPSGIPDRFSASKSGTSATLGITGLQTGDEADYYCGTWDSSLTVWAFGGGTKLTVLG
B5: HA9-212 IgG (antibody, V domains shown)
VH: EVQLVESGGGVVRPGGSLRLSCAASGFAFGEYGMSWVRQAPGKGLEWVSGINWNGGSTGYADSVQGRFTTSRDNAKNSLYLQMNSLRAEDTALYYCARDENYDILTGNYYYGMDVWGQGTTVTVSS
VL: QSVVTQPPSVSAAPGQKVTISCSGSSSNIGNNYVSWYQQLPGTAPKLLIYDNNKRPSGIPDRFSASKSGTSATLGITGLQTGDEADYYCGTWDSSLTVWAFGGGTKLTVLG
notes: VH joined to human IgG1 constant region; VL joined to 'human x chain constant region'; Tested as culture supernatant of COS-7 / FreeStyle 293-F cells

Key:
[1] = target: T1, human α9 integrin (human, UniProt Q13797 30-1035); assay: cell-based or functional assay
T1 sequence: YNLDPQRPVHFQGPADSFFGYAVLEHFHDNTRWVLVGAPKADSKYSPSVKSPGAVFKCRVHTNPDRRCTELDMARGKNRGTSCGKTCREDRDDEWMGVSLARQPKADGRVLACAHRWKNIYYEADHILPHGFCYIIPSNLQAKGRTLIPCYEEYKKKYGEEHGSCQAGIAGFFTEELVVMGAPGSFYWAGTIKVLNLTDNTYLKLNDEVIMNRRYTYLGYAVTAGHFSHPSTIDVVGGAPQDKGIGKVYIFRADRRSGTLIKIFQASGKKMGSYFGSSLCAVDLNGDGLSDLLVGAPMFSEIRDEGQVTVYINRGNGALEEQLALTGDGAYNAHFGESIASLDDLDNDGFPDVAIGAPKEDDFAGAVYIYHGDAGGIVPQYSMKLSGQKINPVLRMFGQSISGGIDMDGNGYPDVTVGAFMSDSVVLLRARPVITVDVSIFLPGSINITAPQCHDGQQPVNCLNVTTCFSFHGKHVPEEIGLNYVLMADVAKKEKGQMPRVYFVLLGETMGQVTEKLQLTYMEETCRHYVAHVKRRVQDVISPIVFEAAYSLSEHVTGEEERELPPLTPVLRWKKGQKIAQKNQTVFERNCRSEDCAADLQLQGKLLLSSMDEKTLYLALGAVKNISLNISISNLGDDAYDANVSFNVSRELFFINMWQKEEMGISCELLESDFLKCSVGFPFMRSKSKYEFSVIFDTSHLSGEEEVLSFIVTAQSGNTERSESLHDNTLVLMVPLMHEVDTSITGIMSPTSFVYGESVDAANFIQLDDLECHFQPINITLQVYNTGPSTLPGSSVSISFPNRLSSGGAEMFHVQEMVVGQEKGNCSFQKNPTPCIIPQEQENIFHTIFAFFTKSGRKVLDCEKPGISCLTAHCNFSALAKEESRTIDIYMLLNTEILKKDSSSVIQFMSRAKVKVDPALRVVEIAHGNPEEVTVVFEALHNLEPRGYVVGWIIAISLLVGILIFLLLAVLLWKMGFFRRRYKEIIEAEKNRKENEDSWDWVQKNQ

[2] = target: T2, mouse α9 integrin (mouse, UniProt B8JK39 29-1036); assay: cell-based or functional assay
T2 chain: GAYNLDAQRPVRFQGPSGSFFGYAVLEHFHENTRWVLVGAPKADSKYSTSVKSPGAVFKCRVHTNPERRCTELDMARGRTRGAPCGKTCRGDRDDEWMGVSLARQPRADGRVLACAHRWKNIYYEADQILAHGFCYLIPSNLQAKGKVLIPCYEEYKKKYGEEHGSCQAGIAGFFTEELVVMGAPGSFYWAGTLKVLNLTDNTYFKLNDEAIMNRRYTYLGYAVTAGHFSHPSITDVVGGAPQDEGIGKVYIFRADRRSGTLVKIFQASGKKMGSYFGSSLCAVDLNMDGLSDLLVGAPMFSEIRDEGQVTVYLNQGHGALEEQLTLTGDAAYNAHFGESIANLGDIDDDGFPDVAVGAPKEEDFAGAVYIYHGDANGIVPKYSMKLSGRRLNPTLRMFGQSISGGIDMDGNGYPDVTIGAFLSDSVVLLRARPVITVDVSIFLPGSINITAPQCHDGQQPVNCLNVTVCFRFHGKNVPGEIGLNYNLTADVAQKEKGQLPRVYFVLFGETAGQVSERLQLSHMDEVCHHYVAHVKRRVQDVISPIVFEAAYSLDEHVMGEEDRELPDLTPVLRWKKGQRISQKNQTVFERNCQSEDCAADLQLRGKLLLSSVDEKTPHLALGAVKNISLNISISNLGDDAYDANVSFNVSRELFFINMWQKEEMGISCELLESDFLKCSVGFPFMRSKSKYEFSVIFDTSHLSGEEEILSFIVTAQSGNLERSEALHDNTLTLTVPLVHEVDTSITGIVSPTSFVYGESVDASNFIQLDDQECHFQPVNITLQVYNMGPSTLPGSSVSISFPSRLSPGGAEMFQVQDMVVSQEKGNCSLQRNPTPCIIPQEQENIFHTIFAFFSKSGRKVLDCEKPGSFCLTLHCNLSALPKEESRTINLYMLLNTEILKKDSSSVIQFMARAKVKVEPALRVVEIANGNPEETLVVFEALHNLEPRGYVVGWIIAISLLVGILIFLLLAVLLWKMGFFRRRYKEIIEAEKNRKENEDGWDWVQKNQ

[3] = target: T1, human α9 integrin; assay: cell-based or functional assay; remark: listed apart in the source
[4] = target: T1, human α9 integrin; assay: Cell ELISA of IgG in culture supernatant, anti-human IgG(Fc) detection
Method: CHO/mα9 and CHO were seeded on a 96 well plate (costar) at 2×10⁴ cells/100 μL/well, and incubated overnight at 37° C., 5% CO₂. The medium was suctioned, and the cells were washed with PBS, and reacted with phage antibody diluted with 1% BSA/PBS. The detection was performed by using horse-radish peroxidase (HRP)-labeled anti-M13 antibody (Amersham) and TMB (SIGMA) in combination. The absorbance at wavelengths 450 nm and 650 nm was measured by a microplate reader (Molecular Devices).
SW480/mα9, SW480/hα9 and SW480 were used as antigens, 1% BSA/PBS containing 5% FBS was used as a dilution solution, an HRP-labeled anti-mouse IgG antibody (ZYMED) was used for detection, and the rest was performed under the same conditions as in Example 4.
The IgG expression amount in the culture supernatant was quantified by human IgG quantification ELISA, and the reactivity with human α9 and mouse α9 at each IgG concentration was analyzed by Cell ELISA. HRP-labeled anti-human IgG(Fc) antibody (American Qualex) was used for detection, and the rest was performed under the same conditions as in Example 11.

Row | Binder | IC50 of inhibition of α9-dependent cell adhesion [1] | IC50 of inhibition of α9-dependent cell adhesion [2] | fold inhibitory activity against human α9-dependent cell adhesion, against MA9-413 [3] | binding result [4]
1 | B1 | > 10 µg/mL | 0.067 µg/mL | – | –
2 | B2 | 0.42 µg/mL | 2.32 µg/mL | – | –
3 | B3 | 0.053 µg/mL | 3.3 µg/mL | ~1000 fold | –
4 | B4 | > 10 µg/mL | 0.96 µg/mL | – | –
5 | B5 | – | – | – | binds
